In PMC2629652 (FEBS letters, 2008):
Where two headings read alike, the source gives them in different places.

B1: C. acetobutylicum flavo-diiron protein FprA1 (enzyme, UniProt Q97K92 1-392, looked up)
chain: MSAEKLCENVYWVGVKDQKLRVFDIIMNTKKGSTYNSYLINDDKVAIIDTVKDGFYDEFLKSIKSVIGDKKVDYIVVQHTELDHSGSMYRLIKEYPEAKVVSSKAANMYLKEIVNDEFNSLDAMEVKELNLGKNTLEFISAPNLHWPDTMFTYNKENNILFTCDVMGCHYCPDGSIKDEGGEDYLPEMRYYFDVIMSPFKKFVNMGLDKIKDLKLDMIAPSHGPVHINDIEESVKLYREWAKEKEPKEKNVQIFYITAYGNTGIMAKHLCEDINKKGVKAEVHEITDMKMEDIVELIADANGVLVGSPTINQDAVRPVWDVLSSVCPIVNRGKAAAAFGSYGWSGEGVPMMMDRLKSLKFKTPDNGLKFKFVPASKEFSEADKFVDDFIGLL
B2: C. acetobutylicum flavo-diiron protein FprA2 (enzyme, UniProt Q97GC0 1-400, looked up)
chain: MPAIKIKDNIFSVGVLNPSLRIFDIIMKTEYGTSYNAYLIKGKKNVLIDTVHGRFFDEYLENIKSVIDPSSIDYVIMNHCEPDHSGSLARLYEVAPQIKVIASNAGKIYLKNITNKETLDVKAVKTNDTLDIGNGKVLKFAIAPFLHWPDSMFTILEEDKIAFTCDFLGCHFCEPRMFDTKITYMPKYEKSFKEYYDAIFSPFKPYVVKGLDILDALDLDFIATSHGPILTREGLLAASKQKYRDLSSEIQSTTKYIPIFYCSAYGNTEILANEIASGIKSVLNDANIEMLDIINYDYSDLKEKINICDAFMLGTPTINKDALFPIWELIGGIDAVNCKNKPASAFGSFGWSGEAIPFVISRLKELKLKVFQDGFTCLFVPSEDDIKKAFKFGEDFAKSI

Experiments:
[1] = molecular target: T1, FprA1 (Clostridium acetobutylicum, UniProt Q97K92); assay: TLC of the flavin cofactor; type: binding; conditions: co-purified oxidized flavin, 378 and 450 nm bands
T1 sequence (Q97K92 2-392): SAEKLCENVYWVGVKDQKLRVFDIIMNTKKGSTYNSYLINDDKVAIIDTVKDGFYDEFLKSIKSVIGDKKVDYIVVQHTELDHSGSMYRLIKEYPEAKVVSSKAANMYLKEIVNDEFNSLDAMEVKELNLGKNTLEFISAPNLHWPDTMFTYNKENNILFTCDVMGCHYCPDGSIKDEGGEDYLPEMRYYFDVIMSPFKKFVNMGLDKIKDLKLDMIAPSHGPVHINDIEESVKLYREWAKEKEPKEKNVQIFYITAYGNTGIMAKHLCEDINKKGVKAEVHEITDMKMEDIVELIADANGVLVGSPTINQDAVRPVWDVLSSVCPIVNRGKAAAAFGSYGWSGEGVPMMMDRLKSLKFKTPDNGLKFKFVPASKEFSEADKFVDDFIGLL

[2] = molecular target: the molecule itself; assay: SEC
[3] = molecular target: the molecule itself; assay: SEC; remark: listed apart in the source

Row | Molecule | TLC of the flavin cofactor; UV-visible absorption of purified protein [1] | stoichiometry N [2] | stoichiometry N [3]
1 | Cc1cc2nc3c(=O)[nH]c(=O)nc-3n(C[C@H](O)[C@H](O)[C@H](O)COP(=O)(O)O)c2cc1C [FMN] | TLC analysis identified FMN as the flavin cofactor in both FprA1 and FprA2 |  | 
2 | B1 |  | 2 | 
3 | B2 |  | 4 | 2
